# Laboratory results reported in paper PMC12229607.
# Molecular target: human Fc gamma receptor FcγRIIIa, V158 allotype (human)
# Test: ELISA
# human Fc gamma receptor FcγRIIIa, V158 allotype (human), sequence (P08637 17-208): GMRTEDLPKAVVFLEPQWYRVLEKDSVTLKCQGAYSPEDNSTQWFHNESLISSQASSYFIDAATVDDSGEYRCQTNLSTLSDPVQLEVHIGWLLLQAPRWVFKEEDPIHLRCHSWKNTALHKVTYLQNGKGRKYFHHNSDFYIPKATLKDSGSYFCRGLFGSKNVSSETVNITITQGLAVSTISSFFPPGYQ
row,EC50,Substance
1,28.5 nM,G2-hinge-Fc (E. coli-derived human IgG1 hinge-Fc bearing the G2 glycoform) (domain or fragment)
2,5.4 nM,commercial trastuzumab (antibody)
